In US20150086555A1:

B1: TCN-522 (3212_I12) (antibody, V domains shown)
VH: QVQLQQWGAGLLKPSETLSLTCTVSGGSLTDYSWNWIRQPPGKGLEWIGDTLHNGYTNYNPSLRGRVSISIDTSKNQVSLRLTSVTAADTALYYCARGSGGYGGFDYFGKLRTWDFWGQGTLVTVSS
VL: DIQLTQSPSSLSASVGDRVTITCRASQGIRNDLGWYQQKPGNAPKRLIFGASSLQSGVPSRFSGSGSGTEFTLTISSLQPEDFATYYCLQHNSYPYTFGQGTKLEIK
B2: TCN-538 (3206_O17) (antibody, V domains shown)
VH: QITLKESGPTLVKPTQTLTLTCVFSGFSLSITGVRVGWIRQPPGKALEWLALISWDDEKHYSPSLQSRLTITKDTSKNQVVLTMTNLDPVDTATYYCARSTDRGHVLRYFGWMLPGDAFDVWGQGTMVTVSS
VL: DIVMTQSPDFLPVSLGERATINCKSSQRVLYSSNNKNYLAWYQLKPGQPPKLIIYWASTRESGVPDRFSGSGSGTEFTLTISSLQAEDVAVYYCQQYYSRPYTFGQGTKLEIK
B3: TCN-523 (5248_A17) (antibody, V domains shown)
VH: QVQLVQSGAEVKKPGSSVKVSCKASGGSFSNYAFSWVRQAPGQGLEWMGGTIPLLGTTNYAQKFQGRVTISADQFTSTAYMELGSLRSEDTAVYYCTRRKMTTAFDSWGQGTLVTVSS
VL: QPVLTQPPSASASLGASVTLTCTLSSAYSNYKVDWYQQRPGKGPRFVMRVGTGGIVGSKGDGIPDRFSVLGSGLNRYLTIKNIQEEDESDYHCGADHGSGSNFVSPYVFGGGTKLTVL
B4: TCN-534 (5249_B02) (antibody, V domains shown)
VH: QVQLVQSGAEVKKPGSSVKVSCRESGGTFNGYTITWVRQAPGQGLEWMGGIIPMMGTVNYAQKLQGRVTITTDYFTKTAYMDLNNLRSEDTAMYYCVKIRYTGQQLLWGQGTLVTVSS
VL: DIQMTQSPSTLSASIGDRVTITCRASQSIASWLAWYQQKPGKAPKLLIYEAVNLESGVPSRFSGSGSGTDFTLTISSLQPDDFATYFCQHYGTISQTFGGGTKVEIK
B5: TCN-546 (5089_L08) (antibody, V domains shown)
VH: QVQLQQWGAGLLKPSETLSLTCGVYGGSLSDYYWSWIRQPPGKGLEWIGEINHSGGTNYNPSLKRRVTISVDTSKKQFSLKMNSVTAADTAVYYCARGTDPDTEVYCRAGNCAAFDFWGQGTLVTVSS
VL: EIVLTQSPGTLSLSPGERATLSCRASHFVIGRAVAWYQQKPGQAPRLLIYGASSRATGIPDRFSGSGSGTDFTLTISRLETEDFAVFYCQHYGSSPRYAFGQGTKLEIK

Tests used:
Conditions in all cases: remark: other sources report otherwise
[1] = biological target: recombinant homotrimeric HA A/Hong Kong/1073/99 H9N2 (Influenza A virus A/Hong Kong/1073/99 (H9N2)); assay: protein microarray, purified IgG, trimeric HA
[2] = biological target: recombinant homotrimeric HA A/Hong Kong/156/97 H5N1 (Influenza A virus A/Hong Kong/156/97 (H5N1)); assay: protein microarray, purified IgG, trimeric HA
[3] = biological target: recombinant homotrimeric HA A/Wisconsin/67/05 H3N2 (Influenza A virus A/Wisconsin/67/2005(H3N2)); assay: protein microarray, purified IgG, trimeric HA
[4] = biological target: recombinant homotrimeric HA A/Egypt/3300-NAMRU3/08 H5N1 (Influenza A virus A/Egypt/3300-NAMRU3/2008(H5N1)); assay: protein microarray, purified IgG, trimeric HA
[5] = biological target: recombinant homotrimeric HA A/California/4/09 H1N1 (Influenza A virus A/California/04/2009(H1N1)); assay: protein microarray, purified IgG, trimeric HA
[6] = biological target: recombinant homotrimeric HA A/Indonesia/5/05 H5N1 (Influenza A virus A/Indonesia/5/2005(H5N1)); assay: protein microarray, purified IgG, trimeric HA
[7] = biological target: recombinant homotrimeric HA A/Anhui/1/05 H5N1 (Influenza A virus A/Anhui/1/2005(H5N1)); assay: protein microarray, purified IgG, trimeric HA
[8] = biological target: recombinant homotrimeric HA A/Solomon Islands/3/06 H1N1 (Influenza A virus A/Solomon Islands/3/2006(H1N1)); assay: protein microarray, purified IgG, trimeric HA
[9] = biological target: recombinant homotrimeric HA A/South Carolina/1/18 H1N1 (Influenza A virus A/South Carolina/1/18 (H1N1)); assay: protein microarray, purified IgG, trimeric HA
[10] = biological target: recombinant homotrimeric HA A/Vietnam/1203/04 H5N1 (Influenza A virus A/VietNam/1203/2004(H5N1)); assay: protein microarray, purified IgG, trimeric HA
[11] = biological target: recombinant homotrimeric HA A/northern shoveler/California/HKWF115/07 H6N4 (Influenza A virus A/northern shoveler/California/HKWF115/2007(H6N1)); assay: protein microarray, purified IgG, trimeric HA
[12] = biological target: recombinant homotrimeric HA A/chicken/Vietnam/NCVD-016/08 H5N1 (Influenza A virus A/chicken/Vietnam/NCVD-016/2008(H5N1)); assay: protein microarray, purified IgG, trimeric HA
[13] = biological target: recombinant homotrimeric HA A/Japan/305/57 H2N2 (Influenza A virus A/Japan/305/1957(H2N2)); assay: protein microarray, purified IgG, trimeric HA
[14] = biological target: recombinant soluble homotrimeric HA of A/Hong Kong/2108/03 (H9N2) (Influenza A virus A/HK/2108/2003(H9N2)); assay: HA microarray, BCC supernatant
[15] = biological target: recombinant soluble homotrimeric HA of A/Vietnam/1203/04 (H5N1) (Influenza A virus A/VietNam/1203/2004(H5N1)); assay: HA microarray, BCC supernatant
[16] = biological target: recombinant soluble homotrimeric HA of A/California/4/09 (H1N1) (Influenza A virus A/California/04/2009(H1N1)); assay: HA microarray, BCC supernatant
[17] = biological target: recombinant soluble homotrimeric HA of A/Japan/305/57 (H2N2) (Influenza A virus A/Japan/305/1957(H2N2)); assay: HA microarray, BCC supernatant
[18] = biological target: recombinant soluble homotrimeric HA of A/Solomon Islands/3/06 (H1N1) (Influenza A virus A/Solomon Islands/3/2006(H1N1)); assay: HA microarray, BCC supernatant
[19] = biological target: recombinant soluble homotrimeric HA of A/Indonesia/5/05 (H5N1) (Influenza A virus A/Indonesia/5/2005(H5N1)); assay: HA microarray, BCC supernatant
[20] = biological target: recombinant soluble homotrimeric HA of A/duck/Yangzhou/02/05 (H8N4) (Influenza A virus A/duck/Yangzhou/02/2005(H8N4)); assay: HA microarray, BCC supernatant
[21] = biological target: recombinant homotrimeric HA A/Netherlands/219/03 H7N7 (Influenza A virus A/Netherlands/219/03(H7N7)); assay: protein microarray, purified IgG, trimeric HA
[22] = biological target: recombinant homotrimeric HA A/Hong Kong/2108/03 H9N2 (Influenza A virus A/HK/2108/2003(H9N2)); assay: protein microarray, purified IgG, trimeric HA
[23] = biological target: recombinant soluble homotrimeric HA of A/Anhui/1/05 (H5N1) (Influenza A virus A/Anhui/1/2005(H5N1)); assay: HA microarray, BCC supernatant
[24] = biological target: recombinant soluble homotrimeric HA of A/northern shoveler/California/HKWF115/07 (H6) (Influenza A virus A/northern shoveler/California/HKWF115/2007(H6N1)); assay: HA microarray, BCC supernatant
[25] = biological target: recombinant soluble homotrimeric HA of A/Wisconsin/67/05 (H3N2) (Influenza A virus A/Wisconsin/67/2005(H3N2)); assay: HA microarray, BCC supernatant
[26] = biological target: recombinant soluble homotrimeric HA of A/chicken/Vietnam/NCVD-016/08 (H5N1) (Influenza A virus A/chicken/Vietnam/NCVD-016/2008(H5N1)); assay: HA microarray, BCC supernatant
[27] = biological target: recombinant soluble homotrimeric HA of A/Netherlands/219/03 (H7N7) (Influenza A virus A/Netherlands/219/03(H7N7)); assay: HA microarray, BCC supernatant

Binder | Trimeric HA Binding: RLU [1] [RLU] | Trimeric HA Binding: RLU [2] [RLU] | Trimeric HA Binding: RLU [4] [RLU] | Trimeric HA Binding: RLU [5] [RLU] | Trimeric HA Binding: RLU [6] [RLU] | Trimeric HA Binding: RLU [7] [RLU] | Trimeric HA Binding: RLU [8] [RLU] | Trimeric HA Binding: RLU [9] [RLU] | Trimeric HA Binding: RLU [10] [RLU] | Trimeric HA Binding: RLU [11] [RLU] | Trimeric HA Binding: RLU [12] [RLU] | Trimeric HA Binding: RLU [13] [RLU] | Trimeric HA Binding: RLU [14] [RLU] | Trimeric HA Binding: RLU [15] [RLU] | Trimeric HA Binding: RLU [16] [RLU] | Trimeric HA Binding: RLU [17] [RLU] | Trimeric HA Binding: RLU [18] [RLU] | Trimeric HA Binding: RLU [19] [RLU] | Trimeric HA Binding: RLU [20] [RLU] | Trimeric HA Binding: RLU [22] [RLU] | other results
B1 | 5050 | 14800 | 11300 | 13900 | 12500 | 5260 | 19100 | 4500 | 11300 | 3180 | 1960 | 9740 | 639 | 145 | 5020 | 989 | 38900 | 67 | 502 |  | Trimeric HA Binding: RLU [3]: 108 RLU
B2 | 1270 | 7080 | 7290 | 4810 | 7450 |  | 9740 | 6770 | 14000 | 11400 | 1060 | 20500 | 109 | 60 | 13800 | 43000 | 33200 | 26400 | 6120 | 172 | Trimeric HA Binding: RLU [21]: 446 RLU; Trimeric HA Binding: RLU [23]: 689 RLU; Trimeric HA Binding: RLU [24]: 17400 RLU; Trimeric HA Binding: RLU [25]: 6900 RLU; Trimeric HA Binding: RLU [26]: 37300 RLU
B3 | 2130 | 5810 | 21300 | 19500 | 16900 | 7240 | 5130 | 9720 | 20000 | 3370 | 4960 | 15300 | 189 | 3380 | 34700 | 5110 | 37900 | 45800 |  | 163 | Trimeric HA Binding: RLU [23]: 5700 RLU; Trimeric HA Binding: RLU [24]: 46900 RLU; Trimeric HA Binding: RLU [26]: 48900 RLU; Trimeric HA Binding: RLU [27]: 2340 RLU
B4 | 918 | 13200 | 18200 | 20700 | 19500 | 1900 | 11400 | 9240 | 25900 | 21700 | 5170 | 29100 | 165 | 3440 | 30100 | 50600 | 44200 | 46400 | 46500 | 172 | Trimeric HA Binding: RLU [21]: 3420 RLU; Trimeric HA Binding: RLU [23]: 6860 RLU; Trimeric HA Binding: RLU [24]: 52400 RLU; Trimeric HA Binding: RLU [25]: 7980 RLU; Trimeric HA Binding: RLU [26]: 56600 RLU; Trimeric HA Binding: RLU [27]: 4340 RLU
B5 | 505 | 890 | 11200 | 277 | 147 | 21400 |  | 88 | 1200 |  | 207 | 503 | 13000 | 349 | 350 | 520 |  | 18400 | 487 | 307 | Trimeric HA Binding: RLU [3]: 25500 RLU; Trimeric HA Binding: RLU [21]: 386 RLU; Trimeric HA Binding: RLU [23]: 2040 RLU; Trimeric HA Binding: RLU [25]: 30200 RLU; Trimeric HA Binding: RLU [26]: 421 RLU; Trimeric HA Binding: RLU [27]: 1450 RLU
